tested on: Escherichia coli TOP10; test: shrunken log2 fold change of peptide-encoding DNA abundance (4.5 h post-induction vs induction); higher = less antimicrobial activity (less host growth inhibition); details: time post-induction: 4.5 h; library: site-saturation at positions 5, 18, 19, 20
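Also: peptides expressed intracellularly from a pBAD plasmid library in pooled LB shake-flask culture, induced with 0.3% L-arabinose, DNA abundance read by NGS, three biological replicates, DESeq2 with apeglm shrinkage.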

Compared with RRIRRRPPRLPRPRPRPKVWPRP, RRIRLRPPRLPRPRPRPMIRPRP is lower in “shrunken log2 fold change” value: 0.382 for the first, -0.154 for the second.

First: RRIRKRPPRLPRPRPRPMMNPRP
Second: RRIRCRPPRLPRPRPRPIGAPRP
The “shrunken log2 fold change” value of the first is higher: 0.154 for the first, -0.0968 for the second.

First: RRIRCRPPRLPRPRPRPGGFPRP
Second: RRIRLRPPRLPRPRPRPEKIPRP
The “shrunken log2 fold change” value of the first is higher: 0.146 for the first, -0.223 for the second.

Compared with RRIRLRPPRLPRPRPRPHYTPRP, RRIRARPPRLPRPRPRPTSAPRP is higher in “shrunken log2 fold change” value: -0.118 for the first, 0.684 for the second.

Going from RRIRCRPPRLPRPRPRPVMSPRP to RRIRNRPPRLPRPRPRPVFEPRP, the “shrunken log2 fold change” value rises from -0.136 to 0.07.

RRIRSRPPRLPRPRPRPDWMPRP and RRIRVRPPRLPRPRPRPSDHPRP are within 0.2 log units of each other in “shrunken log2 fold change” value: 0.0892 for the first, -0.0923 for the second.

RRIRDRPPRLPRPRPRPDPDPRP and RRIRMRPPRLPRPRPRPRNWPRP are within 0.2 log units of each other in “shrunken log2 fold change” value: 0.671 for the first, 0.788 for the second.

Going from RRIRQRPPRLPRPRPRPAIQPRP to RRIRIRPPRLPRPRPRPHIAPRP, the “shrunken log2 fold change” value falls from -0.679 to -0.957.

RRIRLRPPRLPRPRPRPDYFPRP and RRIRIRPPRLPRPRPRPAKLPRP are within 0.2 log units of each other in “shrunken log2 fold change” value: -0.146 for the first, -0.302 for the second.

RRIRNRPPRLPRPRPRPASNPRP and RRIRCRPPRLPRPRPRPWHMPRP are within 0.2 log units of each other in “shrunken log2 fold change” value: -0.065 for the first, -0.119 for the second.

Going from RRIRFRPPRLPRPRPRPAIEPRP to RRIRYRPPRLPRPRPRPQANPRP, the “shrunken log2 fold change” value falls from 0.519 to -0.694.

Going from RRIRDRPPRLPRPRPRPQQNPRP to RRIRSRPPRLPRPRPRPIEAPRP, the “shrunken log2 fold change” value rises from -0.452 to 0.137.

Going from RRIRQRPPRLPRPRPRPCFEPRP to RRIRCRPPRLPRPRPRPIKWPRP, the “shrunken log2 fold change” value falls from 0.0423 to -0.343.

First: RRIRERPPRLPRPRPRPNAMPRP
Second: RRIRTRPPRLPRPRPRPYDFPRP
The “shrunken log2 fold change” value of the first is higher: 0.0107 for the first, -0.385 for the second.

RRIRTRPPRLPRPRPRPWLDPRP and RRIRDRPPRLPRPRPRPKMMPRP are within 0.2 log units of each other in “shrunken log2 fold change” value: -0.181 for the first, -0.154 for the second.

RRIRRRPPRLPRPRPRPIGWPRP and RRIRRRPPRLPRPRPRPEYVPRP are within 0.2 log units of each other in “shrunken log2 fold change” value: 0.217 for the first, 0.0703 for the second.

First: RRIRFRPPRLPRPRPRPLEPPRP
Second: RRIRDRPPRLPRPRPRPGSDPRP
The “shrunken log2 fold change” value of the first is lower: -0.199 for the first, 0.461 for the second.

First: RRIRIRPPRLPRPRPRPQWSPRP
Second: RRIRMRPPRLPRPRPRPQCWPRP
The “shrunken log2 fold change” value of the first is lower: -0.618 for the first, 0.14 for the second.

RRIRNRPPRLPRPRPRPLAPPRP and RRIRYRPPRLPRPRPRPGEKPRP are within 0.2 log units of each other in “shrunken log2 fold change” value: 0.262 for the first, 0.0799 for the second.

RRIRHRPPRLPRPRPRPPAVPRP and RRIRCRPPRLPRPRPRPGAVPRP are within 0.2 log units of each other in “shrunken log2 fold change” value: 0.373 for the first, 0.202 for the second.

RRIRCRPPRLPRPRPRPWGHPRP and RRIRIRPPRLPRPRPRPCGTPRP are within 0.2 log units of each other in “shrunken log2 fold change” value: -0.092 for the first, -0.00435 for the second.

RRIRCRPPRLPRPRPRPTLPPRP and RRIRCRPPRLPRPRPRPDYCPRP are within 0.2 log units of each other in “shrunken log2 fold change” value: 0.356 for the first, 0.25 for the second.

Compared with RRIRPRPPRLPRPRPRPTFWPRP, RRIRTRPPRLPRPRPRPSWEPRP is lower in “shrunken log2 fold change” value: 0.333 for the first, 0.0239 for the second.

Going from RRIRTRPPRLPRPRPRPRDLPRP to RRIRARPPRLPRPRPRPWVPPRP, the “shrunken log2 fold change” value falls from 0.064 to -0.146.

Going from RRIRRRPPRLPRPRPRPKAMPRP to RRIRCRPPRLPRPRPRPRFFPRP, the “shrunken log2 fold change” value falls from 0.431 to 0.191.

RRIRLRPPRLPRPRPRPRKVPRP and RRIRGRPPRLPRPRPRPAWGPRP are within 0.2 log units of each other in “shrunken log2 fold change” value: 0.0909 for the first, 0.268 for the second.

Compared with RRIRCRPPRLPRPRPRPYFPPRP, RRIRCRPPRLPRPRPRPHRLPRP is higher in “shrunken log2 fold change” value: -0.513 for the first, -0.227 for the second.

First: RRIRCRPPRLPRPRPRPMRKPRP
Second: RRIRARPPRLPRPRPRPMRAPRP
The “shrunken log2 fold change” value of the first is lower: 0.249 for the first, 1.25 for the second.

First: RRIRERPPRLPRPRPRPEFYPRP
Second: RRIRSRPPRLPRPRPRPAEHPRP
The “shrunken log2 fold change” value of the first is lower: -0.377 for the first, 0.0851 for the second.

RRIRQRPPRLPRPRPRPRHHPRP and RRIRVRPPRLPRPRPRPWHCPRP are within 0.2 log units of each other in “shrunken log2 fold change” value: 0.0815 for the first, -0.0339 for the second.

RRIRCRPPRLPRPRPRPWRQPRP and RRIRYRPPRLPRPRPRPIYMPRP are within 0.2 log units of each other in “shrunken log2 fold change” value: -0.167 for the first, -0.22 for the second.

Compared with RRIRWRPPRLPRPRPRPVATPRP, RRIRMRPPRLPRPRPRPKEFPRP is lower in “shrunken log2 fold change” value: 0.991 for the first, 0.103 for the second.

RRIRMRPPRLPRPRPRPHHSPRP and RRIRYRPPRLPRPRPRPGSVPRP are within 0.2 log units of each other in “shrunken log2 fold change” value: -0.236 for the first, -0.101 for the second.

RRIRCRPPRLPRPRPRPIPGPRP and RRIRWRPPRLPRPRPRPLCRPRP are within 0.2 log units of each other in “shrunken log2 fold change” value: -0.000108 for the first, 0.17 for the second.

Compared with RRIRPRPPRLPRPRPRPTSHPRP, RRIRCRPPRLPRPRPRPDFEPRP is higher in “shrunken log2 fold change” value: -0.235 for the first, -0.0276 for the second.

Compared with RRIRKRPPRLPRPRPRPHCIPRP, RRIRERPPRLPRPRPRPIHNPRP is lower in “shrunken log2 fold change” value: -0.165 for the first, -0.659 for the second.

Going from RRIRERPPRLPRPRPRPKAYPRP to RRIRIRPPRLPRPRPRPCPAPRP, the “shrunken log2 fold change” value falls from -0.00666 to -0.247.

RRIRNRPPRLPRPRPRPYTIPRP and RRIRSRPPRLPRPRPRPVKYPRP are within 0.2 log units of each other in “shrunken log2 fold change” value: -0.138 for the first, -0.177 for the second.

RRIRCRPPRLPRPRPRPADRPRP and RRIRWRPPRLPRPRPRPYWLPRP are within 0.2 log units of each other in “shrunken log2 fold change” value: -0.0122 for the first, -0.0807 for the second.

First: RRIRCRPPRLPRPRPRPYRTPRP
Second: RRIRKRPPRLPRPRPRPDRQPRP
The “shrunken log2 fold change” value of the first is lower: -0.132 for the first, 0.204 for the second.

RRIRIRPPRLPRPRPRPWHSPRP and RRIRERPPRLPRPRPRPWRTPRP are within 0.2 log units of each other in “shrunken log2 fold change” value: -0.383 for the first, -0.259 for the second.

Going from RRIRIRPPRLPRPRPRPKVDPRP to RRIRERPPRLPRPRPRPKPHPRP, the “shrunken log2 fold change” value rises from -0.468 to 0.000708.

Compared with RRIRRRPPRLPRPRPRPNWCPRP, RRIRSRPPRLPRPRPRPDTEPRP is lower in “shrunken log2 fold change” value: 0.177 for the first, -0.0911 for the second.

First: RRIRCRPPRLPRPRPRPDMMPRP
Second: RRIRRRPPRLPRPRPRPYNRPRP
The “shrunken log2 fold change” value of the first is higher: 0.00614 for the first, -0.276 for the second.

Compared with RRIRMRPPRLPRPRPRPMRGPRP, RRIRVRPPRLPRPRPRPTKFPRP is lower in “shrunken log2 fold change” value: 1.53 for the first, -0.248 for the second.

RRIRNRPPRLPRPRPRPLSGPRP and RRIRKRPPRLPRPRPRPCQPPRP are within 0.2 log units of each other in “shrunken log2 fold change” value: 0.0992 for the first, 0.227 for the second.

Compared with RRIRQRPPRLPRPRPRPHEYPRP, RRIRNRPPRLPRPRPRPNITPRP is lower in “shrunken log2 fold change” value: 0.0128 for the first, -0.693 for the second.

RRIRVRPPRLPRPRPRPTNSPRP and RRIRLRPPRLPRPRPRPDYMPRP are within 0.2 log units of each other in “shrunken log2 fold change” value: -0.436 for the first, -0.548 for the second.

First: RRIRFRPPRLPRPRPRPHIPPRP
Second: RRIRFRPPRLPRPRPRPYFMPRP
The “shrunken log2 fold change” value of the first is higher: -0.289 for the first, -1.02 for the second.

Compared with RRIRFRPPRLPRPRPRPLLAPRP, RRIRPRPPRLPRPRPRPQYWPRP is lower in “shrunken log2 fold change” value: 0.176 for the first, -0.0415 for the second.

Going from RRIRIRPPRLPRPRPRPSCCPRP to RRIRCRPPRLPRPRPRPRYHPRP, the “shrunken log2 fold change” value falls from -0.471 to -0.685.

RRIRHRPPRLPRPRPRPQMWPRP and RRIRARPPRLPRPRPRPVAIPRP are within 0.2 log units of each other in “shrunken log2 fold change” value: 2.46e-05 for the first, 0.111 for the second.

RRIRMRPPRLPRPRPRPVSYPRP and RRIRVRPPRLPRPRPRPAKMPRP are within 0.2 log units of each other in “shrunken log2 fold change” value: -0.00671 for the first, 0.0161 for the second.

Compared with RRIRWRPPRLPRPRPRPLDFPRP, RRIRDRPPRLPRPRPRPQSYPRP is lower in “shrunken log2 fold change” value: 0.0518 for the first, -0.495 for the second.

With RRIRDRPPRLPRPRPRPGYPPRP the “shrunken log2 fold change” value was 0.0463.
